Where two headings read alike, the source gives them in different places.
B1: NYA-2045 (scFv)
scFv: GEVQLVESGGGLVQPGGSLRLSCAASGFSIRSYDIHWVRLAPGKGLEWVATISYDGSQKYYADSVKGRFTISRDESKNTLYLQMNSLRAEDTAVYHCARGSSGHYEAFDIWGQGTLVTVSSGGGGSGGGGSGGGGSQSVLTQPPSASGTPGQRVTISCSGSSSNIGNWYVSWYQQLPGTAPKLLIYDNNKRPSGVPDRFSGSKSGTSASLAISGLQSEDEADYYCGTWDSSLSAPWVFGGGTKLTVLGAAAGAGGDYKDDDDKGAAAHHHHHH
notes: also called NYA-2045 tag adduct
B2: NYA-2061 (scFv)
scFv: GEVQLVESGGGLVQPGGSLRLSCAASGFSIRSYDIHWVRQAPGKGLEWVATISYDGSQKYYADSVKGRFTISRDESKNTLYLQMNSLRAEDTAVYHCARGSSGHYEAFDIWGQGTLVTVSSGGGGSGGGGSGGGGSQSVLTQPPSASGTPGQRVTISCSGSSSNIGNWYVSWYQQLPGTAPKLLIYDNNKRPSGVPDRFSGSKSGTSASLAISGLQSEDEADYYCGTWDSSLSAPWVFGGGTKLTVLGAAAGAGGDYKDDDDKGAAAHHHHHH
notes: also called NYA-2061 tag adduct
B3: NYA-2048 (scFv)
scFv: GQVQLVESGGGVVQPGRSLRLSCAASGFSIRSYDMHWVRQAPGKGLEWVATISYDGSQKYYADSVKGRFTISRDNSKNTLYLQMSSLRAEDTAVYHCARGSSGHYEAFDIWGQGTLVTVSSGGGGSGGGGSGGGGSQSVLTQPPSASGTPGQRVTISCSGSSSNIGNWYVSWYQQLPGTAPKLLIYDNNKRPSGVPDRFSGSKSGTSASLAISGLQSEDEADYYCGTWDSSLSAPWVFGGGTKLTVLGAAAGAGGDYKDDDDKGAAAHHHHHH
notes: also called NYA-2048 tag adduct
B4: NYA-2047 (scFv)
scFv: GQVQLVESGGGVVQPGRSLRLSCAASGFSIRSYDMHWVRQAPGKGLEWVATISYDGSQKYYADSVKGRFTISRDNSKNTLYLQMSSLRAEDTAVYHCARGSSGHYEAFDIWGQGTLVTVSSGGGGSGGGGSGGGGSQSVLTQPPSVSAAPGQKVTISCSGSSSNIGNWYVSWYQQLPGTAPKLLIYDNNKRPSGIPDRFSGSKSGTSATLGITGLQTGDEADYYCGTWDSSLSAPWVFGGGTKVTVLGAAAGAGGDYKDDDDKGAAAHHHHHH
B5: NY-R119 (scFv)
scFv: EVQLVESGGGVVQPGRSLTPSCSASGFSIRSYDIHWVRQAPGKGLEWVATISYDGSQKYFADSVKGRFTIFRDESENMVYLQMSGLRVEDTAVYHCARGSSGHYEAFDIWGQGTMVTVSSGGGGSGGGGSGGGGSQSVLTQPPSVSAAPGQKVTISCSGSSSNIGNNYVSWYQQLPGTAPKLLIYDNNKRPSGIPDRFSGSKSGTSATLGITGLQTGDEADYYCGTWDSSLSAPWVFGGGTKVTVL
notes: Expressed in E. coli, culture solution used in the ELISA; also called ELISA-positive clone NY-R119; not shown: FLAG tag and His tag at the carboxyl terminus from the E. coli expression vector

Key:
[1] = molecular target: T1, HLA-A*0201/β2-microglobulin/NY-ESO peptide complex (human, biotinylated with E. coli biotin ligase at the added recognition sequence (biotinylated form used in the ELISA)); experiment: SPR (Biacore T200), scFv captured by anti-His antibody, HLA/NY-ESO as analyte, single cycle kinetics
T1 construct: also called HLA/NY-ESO; HLA-A2/NY-ESO
Description: With the use of Biacore T200, anti-HLA/NY-ESO scFv was captured as a ligand by the immobilized anti-His antibody, and the antigen was assayed as an analyte. As the antigen, HLA/NY-ESO prepared in 1)-1 was used. The anti-His antibody (His Capture kit, GE Healthcare) was immobilized on Sensor Chip CM5 (GE Healthcare) in accordance with the instructions of the kit. The anti-HLA/NY-ESO scFv constructs diluted to 0.5 μg/ml in HBS-EP+ (GE Healthcare) to be evaluated were brought into contact therewith at 10 μl/min for 60 seconds for immobilization. Thereafter, the samples were added to the HLA/NY-ESO analytes diluted to various levels with HBS-EP+ at a flow rate of 30 μl/min for 120 seconds and dissociation was assayed for 600 seconds.

[2] = molecular target: T2, HLA-A2/NY-ESO peptide complex presented on cells (human); experiment: flow cytometry on peptide-pulsed T2 cells, scFv 100 nM
T2 construct: whole, on cells; also called HLA/NY-ESO; T2 cells supplemented with the NY-ESO peptide
Description: (§1) The resultant was washed two times in the AIM-V medium containing 20% FBS, the concentration thereof was adjusted to an adequate level with PBS containing 5% FBS, the LIVE/DEAD Fixable Dead Cell Stain Kit (Thermo Fisher Scientific) was added thereto, and the resultant was allowed to stand at 4° C. for 30 minutes. The cells were washed 2 times in PBS containing 5% FBS, the washed cells were divided into two groups, the cells in PBS containing 5% FBS were seeded on a 96-well U-bottom microplate at 10⁵ cells/well, and the plate was subjected to centrifugation, followed by removal of the supernatant. Anti-HLA/NY-ESO scFv diluted to 100 nM with PBS containing 5% FBS was added at 25 μl/well to one of the divided cells, and the resultant was allowed to stand at 4° C. for 30 minutes. The cells were washed 2 times in PBS containing 5% FBS, Penta-His Alexa Fluor488 (QIAGEN) diluted in PBS containing 5% FBS was added at 25 μl/well, and the resultant was allowed to stand at 4° C. for 30 minutes. The cells were washed 2 times in PBS containing 5% FBS, Anti-mouse-IgG Alexa Fluor488 (Thermo Fisher Scientific) diluted in PBS containing 5% FBS was added at 25 μl/well, and the resultant was allowed to stand at 4° C. for 30 minutes. The cells were washed 2 times in PBS containing 5% FBS, immobilized with Mildform 10 N (FUJIFILM Wako Pure Chemical Corporation) overnight, and resuspended in PBS containing 5% FBS. […] The cells were washed 2 times in PBS containing 5% FBS, immobilized with Mildform 10 N (FUJIFILM Wako Pure Chemical Corporation) overnight, and resuspended in PBS containing 5% FBS. The cell suspensions were subjected to detection using a flow cytometer (CantoII, Becton Dickinson). […] The standardized gMFI indicating the binding affinity of each scFv standardized with the amount of the HLA/peptide complex on the T2 cells was determined in accordance with the following equation.

[3] = molecular target: T3, gp100 (human); experiment: as above
T3 construct: cell surface;cell surface complex; also called HLA-A2 / gp100 peptide complex on T2 cells
Description: as §1

[4] = molecular target: T4, HLA-A2 / homologous peptide PRKD2 complex on T2 cells (human); experiment: as above
T4 construct: whole, on cells; also called T2 cells supplemented with homologous peptide PRKD2
Description: (§2) The cells were washed 2 times in PBS containing 5% FBS, immobilized with Mildform 10 N (FUJIFILM Wako Pure Chemical Corporation) overnight, and resuspended in PBS containing 5% FBS. The cell suspensions were subjected to detection using a flow cytometer (CantoII, Becton Dickinson). […] The standardized gMFI indicating the binding affinity of each scFv standardized with the amount of the HLA/peptide complex on the T2 cells was determined in accordance with the following equation.
(§3) The 9-mer peptide shown in FIG. 2A was selected as a homologous peptide for evaluation of binding specificity of anti-HLA/NY-ESO scFv. […] The standardized gMFI indicating the binding affinity of each scFv standardized with the amount of the HLA/peptide complex on the T2 cells was determined in accordance with the following equation.

[5] = molecular target: T2, HLA-A2/NY-ESO peptide complex presented …; experiment: as above; remark: listed apart in the source
Description: as §2, §3

[6] = molecular target: T5, HLA-A2 / homologous peptide IL20RB complex on T2 cells (human); experiment: as above
T5 construct: whole, on cells; also called T2 cells supplemented with homologous peptide IL20RB
Description: as §2, §3

[7] = molecular target: T6, HLA-A2 / homologous peptide DOLPP1 complex on T2 cells (human); experiment: as above
T6 construct: whole, on cells; also called T2 cells supplemented with homologous peptide DOLPP1
Description: as §2, §3

[8] = molecular target: T7, HLA-A2 / homologous peptide CD163 complex on T2 cells (human); experiment: as above
T7 construct: whole, on cells; also called T2 cells supplemented with homologous peptide CD163
Description: as §2, §3

[9] = molecular target: T8, HLA-A2 / homologous peptide P2RY8 complex on T2 cells (human); experiment: as above
T8 construct: whole, on cells; also called T2 cells supplemented with homologous peptide P2RY8
Description: as §2, §3

[10] = molecular target: T3, gp100; experiment: as above; remark: listed apart in the source
Description: as §2, §3

[11] = molecular target: T4, HLA-A2 / homologous peptide PRKD2 …; experiment: flow cytometry, peptide-pulsed T2 cells
[12] = molecular target: T5, HLA-A2 / homologous peptide IL20RB …; experiment: flow cytometry, peptide-pulsed T2 cells
[13] = molecular target: T6, HLA-A2 / homologous peptide DOLPP1 …; experiment: flow cytometry, peptide-pulsed T2 cells
[14] = molecular target: T7, HLA-A2 / homologous peptide CD163 …; experiment: flow cytometry, peptide-pulsed T2 cells
[15] = molecular target: T8, HLA-A2 / homologous peptide P2RY8 …; experiment: flow cytometry, peptide-pulsed T2 cells
[16] = molecular target: T1, HLA-A*0201/β2-microglobulin/NY-ESO …; experiment: ELISA, biotinylated HLA/NY-ESO on NeutrAvidin, scFv from E. coli culture, anti-FLAG-HRP
Description: The plate was washed 3 times with ELISA buffer, blocked with Blocker Casein (Thermo Fisher Scientific), and then washed 3 times with ELISA buffer. Thereafter, a culture solution of scFv-expressing E. coli was added, and the reaction was allowed to proceed at room temperature for 2 hours. After the resultant was washed 3 times with ELISA buffer, 50 μl of the horseradish peroxidase (HRP)-labeled anti-FLAG antibody (Sigma-Aldrich) diluted to 5,000-fold with ELISA buffer was added, and the reaction was allowed to proceed at room temperature for 1 hour.

| Binder | Kd [1] | standardized gMFI [2] | standardized gMFI [3] | standardized gMFI [4] | standardized gMFI [5] | standardized gMFI [6] | standardized gMFI [7] | standardized gMFI [8] | standardized gMFI [9] | standardized gMFI [10] | binding result [11] | binding result [12] | binding result [13] | binding result [14] | binding result [15] | binding result [16] |
| --- | --- | --- | --- | --- | --- | --- | --- | --- | --- | --- | --- | --- | --- | --- | --- | --- |
| B1 | 0.8 nM | 9.03 | 0.39 | 0.34 | 13.8 | 0.47 | 0.43 | 0.48 | 0.58 | 0.3 | no binding (tested: 100 nM) | no binding (tested: 100 nM) | no binding (tested: 100 nM) | no binding (tested: 100 nM) | no binding (tested: 100 nM) | – |
| B2 | 1.5 nM | 8.62 | 0.4 | 0.33 | 10.4 | 0.46 | 0.4 | 0.48 | 0.57 | 0.32 | no binding (tested: 100 nM) | no binding (tested: 100 nM) | no binding (tested: 100 nM) | no binding (tested: 100 nM) | no binding (tested: 100 nM) | – |
| B3 | 6.3 nM | 6.58 | 0.41 | 0.35 | 8.82 | 0.48 | 0.44 | 0.52 | 0.69 | 0.34 | no binding (tested: 100 nM) | no binding (tested: 100 nM) | no binding (tested: 100 nM) | no binding (tested: 100 nM) | no binding (tested: 100 nM) | – |
| B4 | 5.3 nM | 7.99 | 0.39 | 0.35 | 10.2 | 0.43 | 0.4 | 0.47 | 0.72 | 0.3 | no binding (tested: 100 nM) | no binding (tested: 100 nM) | no binding (tested: 100 nM) | no binding (tested: 100 nM) | no binding (tested: 100 nM) | – |
| B5 | – | – | – | – | – | – | – | – | – | – | – | – | – | – | – | binds |
